The test concerns the target vascular endothelial growth factor (VEGF) (human) (UniProt P15692). The experiment in a line: cell-based or functional assay.
Sequence of UniProt P15692 (P15692 other isoform, or with tags, fused parts or gaps limits assumed): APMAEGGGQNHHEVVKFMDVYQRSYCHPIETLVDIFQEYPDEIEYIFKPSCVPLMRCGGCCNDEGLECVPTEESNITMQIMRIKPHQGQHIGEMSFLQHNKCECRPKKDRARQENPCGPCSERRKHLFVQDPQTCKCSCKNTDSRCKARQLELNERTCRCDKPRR

In the case of KH903 (Fc fusion), the viability of HUVECs 72 h after infection with 30 MOI dE1-k35/KH903 (MTT assay), decrease against non-treated group amounted to 53%.
